T1: RD26 (ANAC072) (Arabidopsis thaliana, UniProt Q93VY3 1-297)
T1 sequence: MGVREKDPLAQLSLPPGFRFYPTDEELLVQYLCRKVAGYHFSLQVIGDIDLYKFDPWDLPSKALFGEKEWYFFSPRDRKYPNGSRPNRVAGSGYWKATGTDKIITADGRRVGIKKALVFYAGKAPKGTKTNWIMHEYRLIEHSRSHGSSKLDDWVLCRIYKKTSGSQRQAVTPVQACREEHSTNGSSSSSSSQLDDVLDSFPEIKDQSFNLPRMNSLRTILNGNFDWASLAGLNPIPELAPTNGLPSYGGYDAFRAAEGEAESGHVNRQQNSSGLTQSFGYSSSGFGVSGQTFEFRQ

T2: GST-tagged RD26 DNA-binding/dimerization domain (aa 1-140) (Arabidopsis, UniProt Q93VY3 1-140)
T2 construct: also called RD26 (1-140); source: recombinant protein, purified; pET-42a (Novagen)
T2 sequence (looked up): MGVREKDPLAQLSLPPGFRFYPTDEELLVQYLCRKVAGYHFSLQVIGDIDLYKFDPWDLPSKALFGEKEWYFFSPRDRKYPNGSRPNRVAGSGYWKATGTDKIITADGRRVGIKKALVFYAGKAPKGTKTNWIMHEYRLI

T3: MBP-BES1, full-length BES1 (BRI1 EMS SUPPRESSOR 1) (Arabidopsis, UniProt Q9LN63 1-335)
T3 construct: BES1 (BRI1 EMS SUPPRESSOR 1), BES1/BZR1 family transcription factor of Arabidopsis, full length; also called BES1 FL; source: recombinant protein, purified; pETMALc-H
T3 sequence (looked up): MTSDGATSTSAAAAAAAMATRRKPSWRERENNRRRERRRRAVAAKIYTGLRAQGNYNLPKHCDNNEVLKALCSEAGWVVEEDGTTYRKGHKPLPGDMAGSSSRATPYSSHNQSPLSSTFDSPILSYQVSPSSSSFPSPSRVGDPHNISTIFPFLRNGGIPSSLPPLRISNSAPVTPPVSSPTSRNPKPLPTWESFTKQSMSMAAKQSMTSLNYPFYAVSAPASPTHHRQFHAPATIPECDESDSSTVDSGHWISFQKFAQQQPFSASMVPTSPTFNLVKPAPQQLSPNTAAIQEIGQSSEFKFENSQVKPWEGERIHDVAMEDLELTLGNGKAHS


How the values were obtained:
RD26 (ANAC072) = target: T1, RD26 (ANAC072); test: EMSA; 25 mM HEPES-KOH pH 8.0, 1 mM DTT, 50 mM KCl, 10% glycerol, 20 μl, about 0.2 ng probe, 40 min on ice; 5% native PAGE in 1x TGE; details: protein: recombinant; chain copies: 2; label: 32P 5' end; blunt
BES1;RD26 (ANAC072) [1] = target: T4, BES1;RD26 (ANAC072) (Arabidopsis thaliana;Arabidopsis …, UniProt Q9LN63;Q93VY3 1-335;1-297, |); test: as above; details: protein: recombinant;recombinant; copies: 1;1; label: 32P 5' end; blunt
BES1 = BES1 (Arabidopsis thaliana, UniProt Q9LN63 1-335); test: as above; details: protein: recombinant; chain copies: 2; label: 32P 5' end; blunt
[2] = target: T2, GST-tagged RD26 …; test: pull-down; GST pull-down; GST-tagged RD26 (full length or 1-140) or GST as bait, MBP-tagged BES1 (full length or 1-89) as prey; MBP-BES1 detected by anti-MBP antibody; 20% input shown; details: both partners purified
BES1;RD26 (ANAC072) [3] = target: T4, BES1;RD26 (ANAC072); test: EMSA; synergistic; proposed heterodimer; 25 mM HEPES-KOH pH 8.0, 1 mM DTT, 50 mM KCl, 10% glycerol, 20 μl, about 0.2 ng probe, 40 min on ice; 5% native PAGE in 1x TGE; details: protein: recombinant;recombinant; copies: 1;1; label: 32P 5' end; blunt
[4] = target: T3, MBP-BES1, full-length BES1 (BRI1 EMS …); test: pull-down; GST pull-down; GST-tagged RD26 (full length or 1-140) or GST as bait, MBP-tagged BES1 (full length or 1-89) as prey; MBP-BES1 detected by anti-MBP antibody; 20% input shown; details: both partners purified
BES1;RD26 (ANAC072) [5] = target: T4, BES1;RD26 (ANAC072); test: EMSA; stronger than either protein alone; proposed heterodimer; 25 mM HEPES-KOH pH 8.0, 1 mM DTT, 50 mM KCl, 10% glycerol, 20 μl, about 0.2 ng probe, 40 min on ice; 5% native PAGE in 1x TGE; details: protein: recombinant;recombinant; copies: 1;1; label: 32P 5' end; blunt

Binder | binding result (RD26 (ANAC072)) | binding result (BES1;RD26 (ANAC072) [1]) | binding result (BES1) | also measured
At4g18010 BRRE MU (dsDNA) DNA 1: AAACCGAAAACATTTTTTAGAAAGAAGAAA DNA 2: TTTCTTCTTTCTAAAAAATGTTTTCGGTTT | no binding | no binding | no binding | –
MBP-tagged BES1 DNA-binding/dimerization domain (aa 1-89) (domain or fragment, Arabidopsis, UniProt Q9LN63 1-89, looked up, also called BES1 (1-89); source: recombinant protein, purified; pETMALc-H) MTSDGATSTSAAAAAAAMATRRKPSWRERENNRRRERRRRAVAAKIYTGLRAQGNYNLPKHCDNNEVLKALCSEAGWVVEEDGTTYRKG | – | – | – | binding result [2]: binds
At4g00360 E-box WT (dsDNA) DNA 1: ATTACCTAACTATACATGTGTAATGTGTTC DNA 2: GAACACATTACACATGTATAGTTAGGTAAT | binds | – | binds | binding result (BES1;RD26 (ANAC072) [3]): binds
At4g00360 E-box MU (dsDNA) DNA 1: ATTACCTAACTATAAAAAAATAATGTGTTC DNA 2: GAACACATTATTTTTTTATAGTTAGGTAAT | – | no binding | – | –
GST-RD26, full-length RD26 (RESPONSIVE TO …ON 26) (natural protein, Arabidopsis, UniProt Q93VY3 1-297, looked up, RD26 (ANAC072), NAC family transcription factor of Arabidopsis, full length; also called ANAC072; RD26 FL; source: recombinant protein, purified; pET-42a (Novagen)) MGVREKDPLAQLSLPPGFRFYPTDEELLVQYLCRKVAGYHFSLQVIGDIDLYKFDPWDLPSKALFGEKEWYFFSPRDRKYPNGSRPNRVAGSGYWKATGTDKIITADGRRVGIKKALVFYAGKAPKGTKTNWIMHEYRLIEHSRSHGSSKLDDWVLCRIYKKTSGSQRQAVTPVQACREEHSTNGSSSSSSSQLDDVLDSFPEIKDQSFNLPRMNSLRTILNGNFDWASLAGLNPIPELAPTNGLPSYGGYDAFRAAEGEAESGHVNRQQNSSGLTQSFGYSSSGFGVSGQTFEFRQ | – | – | – | binding result [4]: binds
At4g18010 BRRE WT (dsDNA) DNA 1: AAACCGAAAACACGTGTGAGAAAGAAGAAA DNA 2: TTTCTTCTTTCTCACACGTGTTTTCGGTTT | – | – | binds | binding result (BES1;RD26 (ANAC072) [5]): binds

— article PMC5333127, “RD26 mediates crosstalk between drought and brassinosteroid signalling pathways” (Nature Communications, 2017)
